A word on the stoichiometry N: it is the number of molecules, sites or subunits per partner or assembly.

This test addresses recombinant human λS Full-Length free light chain (rλS-LC) (human).

On to “recombinant human λS Full-Length free light chain (rλS-LC) (natural protein)”, for which the stoichiometry N came out at 2.

Values taken from paper doi:10.1101/2024.07.18.604040.
